What was measured:
[1] = biological target: full-length SARS-CoV-2 spike protein (Wuhan-Hu-1) on Jurkat/hCD20 cells (SARS-CoV-2) (UniProt P0DTC2); assay: cell-based or functional assay
hACE-2-10His (human) = hACE-2-10His (human) (UniProt Q9BYF1); assay: ELISA, hACE-2-10His coated on the plate
[2] = biological target: T1, human CD20 on Jurkat cells (human) (UniProt P11836); assay: cell-based or functional assay
T1 sequence: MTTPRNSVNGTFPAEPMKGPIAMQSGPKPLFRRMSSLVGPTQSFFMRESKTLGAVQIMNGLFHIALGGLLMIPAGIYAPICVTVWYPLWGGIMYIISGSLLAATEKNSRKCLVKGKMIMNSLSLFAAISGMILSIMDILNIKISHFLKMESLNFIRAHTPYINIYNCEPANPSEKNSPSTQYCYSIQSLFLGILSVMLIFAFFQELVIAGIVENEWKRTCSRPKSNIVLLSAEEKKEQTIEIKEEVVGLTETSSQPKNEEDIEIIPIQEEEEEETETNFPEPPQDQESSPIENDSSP

[3] = biological target: human FcγR3a 176Val allotype receptor (human) (UniProt P08637); assay: cell-based or functional assay

| Substance | EC50 (M) of ADCC, NK donor #3, Jurkat/hCD20/SARS-CoV-2 S FL cells [1] [M] | EC50 (M) of ADCP, MDM donor #1, Jurkat/hCD20/SARS-CoV-2 S FL cells [1] [M] | EC50 (M) of ADCP, MDM donor #2, Jurkat/hCD20/SARS-CoV-2 S FL cells [1] [M] | Max ADCP (%), MDM donor #1, Jurkat/hCD20/SARS-CoV-2 S FL cells [1] [%] | Max ADCP (%), MDM donor #2, Jurkat/hCD20/SARS-CoV-2 S FL cells [1] [%] | Max cytotoxicity (%), ADCC, NK donor #1, Jurkat/hCD20/SARS-CoV-2 S FL cells [1] [%] | Max cytotoxicity (%), ADCC, NK donor #2, Jurkat/hCD20/SARS-CoV-2 S FL cells [1] [%] | Max cytotoxicity (%), ADCC, NK donor #3, Jurkat/hCD20/SARS-CoV-2 S FL cells [1] [%] | Max ADCP (%), MDM donor #1, Jurkat/hCD20 cells [2] [%] | Max ADCP (%), MDM donor #2, Jurkat/hCD20 cells [2] [%] | Max cytotoxicity (%), ADCC, NK donor #1, Jurkat/hCD20 cells [2] [%] | Max cytotoxicity (%), ADCC, NK donor #2, Jurkat/hCD20 cells [2] [%] | Max cytotoxicity (%), ADCC, NK donor #3, Jurkat/hCD20 cells [2] [%] | EC50 [M] of ADCP, macrophages, Jurkat/hCD20/SARS-CoV-2 spike cells [1] [M] | Max % ADCP, macrophages, Jurkat/hCD20/SARS-CoV-2 spike cells [1] [%] | EC50 (M), Jurkat/CD20/spike [3] [M] | further results |
| --- | --- | --- | --- | --- | --- | --- | --- | --- | --- | --- | --- | --- | --- | --- | --- | --- | --- |
| casirivimab + imdevimab | 3.6e-11 | 1.2e-10 | 5.78e-11 | 49.5 | 48.2 | 1.6 | 4.1 | 15.4 | – | – | – | – | – | – | – | – | – |
| SARS-CoV-2 RBD.mmh | – | – | – | – | – | – | – | – | – | – | – | – | – | – | – | – | EC50 (hACE-2-10His (human)): 0.3 nM |
| mAb10933 (antibody) | 4.89e-11 | 9.7e-12 | 2.23e-11 | 28.3 | 28.6 | 1.4 | 5 | 11.1 | 14 | 11.5 | 4.7 | 3.6 | 1.2 | 3.88e-11 | 33.1 | 6.47e-10 | Fold induction, Jurkat CD20 [3]: 1.1 fold; Fold induction, Jurkat/CD20/spike [3]: 2.9 fold |
| mAb10987 (antibody) | 6.44e-11 | 2.91e-11 | 1.98e-11 | 32.3 | 30.4 | 8.1 | 10.5 | 26.6 | 14.8 | 10.7 | 3.9 | 1.9 | – | 3.19e-11 | 36.3 | 4.71e-10 | EC50 (M) of ADCC, NK donor #1, Jurkat/hCD20/SARS-CoV-2 S FL cells [1]: 7.42e-10 M; EC50 (M) of ADCC, NK donor #2, Jurkat/hCD20/SARS-CoV-2 S FL cells [1]: 5.05e-09 M |
| IgG1 isotype control (antibody) | – | – | – | 13.1 | 9.6 | 1.8 | 0 | 0 | 16.9 | 14.6 | 0.7 | 6.4 | 0.5 | – | – | – | Max cytotoxicity (%), ADCC, pooled primary NK cells, Jurkat/hCD20 cells [2]: 0.6% |
